Entries after “also recorded” stand apart in the source; their conditions may differ.
Experiments:
Format in all cases: cell-based
[1] = tested on: full-length ALIX localization to the midbody; test: Cotransfection with YFP full-length ALIX into HeLa cells, ALIX midbody localization and interconnected cells
Source text: The mouse TEX14 open reading frame (ORF) sequence was ligated into the BamHI and SalI sites of the pCMV-tag2 vector (Stratagene), which contains an N-terminal FLAG tag sequence. The mouse CEP55 ORF was cloned from testis cDNA and subcloned into the EcoRI and SalI sites of the pcDNA3 (Invitrogen) vector containing an N-terminal MYC tag sequence. The truncated and mutant TEX14 (TX, AAAX3A) and the full-length ALIX sequences were ligated into the BamHI and NotI or the NotI and XbaI sites, respectively, of the pcDNA3 vectors, while mCherry or YFP sequences were subcloned into the KpnI and BamHI sites. Purified plasmid DNA was obtained by using a QIAprep spin miniprep kit (Qiagen), and all constructs were sequenced for integrity.
HEK293T or HeLa cells were maintained in Dulbecco's modified Eagle medium (Invitrogen) supplemented with 10% fetal calf serum (SAFC Biosciences), 1% L-glutamine (Invitrogen), and penicillinstreptomycin (Invitrogen) and grown on poly-D-lysine (Sigma)-coated coverslips in culture plates at 37 C° in a humidified 5% CO2 atmosphere. For immunoprecipitation and immunoblot experiments, cells were seeded at 50 to 80% confluence in […] (Corning) and transiently transfected using Fugene 6/HD transfection reagent (Roche) according to the manufacturer's instructions. […]

[2] = target: T1, TSG-CEP interaction (Homo sapiens, UniProt Q53EZ4); test: Competition assay using the mammalian two-hybrid system, TSG101-CEP55 interaction; details: pcDNA3 overexpression in HEK293T cells; FIG. 6B, FIG. 7 center
T1 construct: expressed in transfected cells; host or cells: HEK293T
T1 sequence (Q53EZ4 157-236 limits assumed): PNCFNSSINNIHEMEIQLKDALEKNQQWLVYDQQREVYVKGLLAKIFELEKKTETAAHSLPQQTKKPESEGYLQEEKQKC
Source text: (§1) A modified form of the CheckMate/Flexi vector mammalian two-hybrid system (Promega) was used to study the interactions of proteins in mammalian cells. A pGL4Cherry (mCherry/GAL4UAS/Hygro) vector was engineered from the pGL4.31 (luc2P/GAL4UAS/Hygro) vector by replacing the Luc2P firefly luciferase reporter sequence with the mCherry sequence. The pACT vector expresses a protein of interest, “X,” fused to a transcriptional activation domain (VP16-AD) and the pBIND vector expresses the other protein of interest, “Y,” fused to a DNA-binding domain (GAL4-BD) and Renilla luciferase by separate promoters. […]
(§2) Sequences encoding the truncated TEX14, CEP55, ALIX, or TSG101 fragments were cloned into the multiple cloning regions of the pACT and pBIND vectors. Some exemplary constructs used are summarized in FIGS. 6A and B. pACT (protein X), pBIND (protein Y), and pGL4Cherry (mCherry/GAL4UAS/Hygro) were transiently cotransfected into HEK293T cells using Fugene 6/HD transfection reagent, and the cells were examined 44 h later for red fluorescence by using an Axiovert 40 CFL microscope (Carl Zeiss). […] The cells were lysed by using Renilla luciferase assay reagent (Promega), and red fluorescence and Renilla luciferase were measured by using a Polar Star Omega microplate reader (BMG LabTech). […]

[3] = target: T2, hinge region of human CEP55 (Homo sapiens, UniProt Q53EZ4); test: Modified mammalian two-hybrid assay in HEK293T cells, TEX14 fragment binding to CEP55; details: transfected HEK293T cells; FIG. 5C, 5E, 5F, FIG. 7
T2 construct: expressed in transfected cells; host or cells: HEK293T
T2 sequence (Q53EZ4 157-236 limits assumed): T1 sequence (Q53EZ4 157-236 limits assumed)
Source text: as §1, §2

[4] = target: T3, ALIX-CEP interaction (Homo sapiens, UniProt Q53EZ4); test: Competition assay using the mammalian two-hybrid system, ALIX-CEP55 interaction; details: pcDNA3 overexpression in HEK293T cells; FIG. 6A, FIG. 7 left
T3 construct: expressed in transfected cells; host or cells: HEK293T
T3 sequence (Q53EZ4 157-236 limits assumed): T1 sequence (Q53EZ4 157-236 limits assumed)
Source text: as §1, §2

effect of overexpression on TSG-CEP interaction [2]: suppressed
effect of overexpression on ALIX-CEP interaction [4]: suppressed
Substance: TX: GPPX3Y region of human TEX14, the 60 amino acids from 754 to 813 (LRNIEQILDEVEMKQKEQEERMSLWATSREFTNAYKLPLAVGPPSLNYIPPVLQLSGGQK; UniProt Q8IWB6 754-813, looked up, fragment)
full-length ALIX localization to the midbody ([1]; HeLa cells cotransfected with pcDNA-mCherry-truncated TEX14 and pcDNA-YFP full-length ALIX): inhibits full-length ALIX localization to the midbody
interconnecting cells (intercellular bridges) in transfected cells ([1]; HeLa cells, FIG. 6G left): several interconnecting cells were visualized
binding to CEP55 hinge region (mCherry/Renilla luciferase or mCherry/YFP ratio) [3]: strongly binds; also recorded: typically stronger than the ALIX-CEP or TSG-CEP interactions

— patent US20130225503A1, “TEX14 PEPTIDES AS NOVEL ANTITUMOR AGENTS” (Baylor Licnensing Group, priority 2009, published 2013)
